Results taken from article PMC10397247.
Values belong to the binder of their own block, whether it stands above or below them.

How the values were obtained:
Experiment in all cases: two-hybrid library CCNG1;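 further: natural log of median RNA to DNA barcode read ratio; higher means stronger binding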
4H3354-bA = molecular target: T1, 4H3354-bA
T1 chain: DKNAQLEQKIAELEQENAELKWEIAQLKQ

4H3185-bA = molecular target: T2, 4H3185-bA
T2 chain: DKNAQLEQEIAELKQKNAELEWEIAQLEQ

4H370-bA = molecular target: T3, 4H370-bA
T3 chain: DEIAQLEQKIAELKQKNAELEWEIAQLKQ

4H462-bA = molecular target: T4, 4H462-bA
T4 chain: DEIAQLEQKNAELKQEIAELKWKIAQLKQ

4H754-bA = molecular target: T5, 4H754-bA
T5 chain: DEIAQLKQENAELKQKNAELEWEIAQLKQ

4H2697-bA = molecular target: T6, 4H2697-bA
T6 chain: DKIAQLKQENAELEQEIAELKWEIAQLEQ

4H331-bA = molecular target: T7, 4H331-bA
T7 chain: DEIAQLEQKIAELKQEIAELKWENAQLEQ

4H2729-bA = molecular target: T8, 4H2729-bA
T8 chain: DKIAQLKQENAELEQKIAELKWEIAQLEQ

4H72-bA = molecular target: T9, 4H72-bA
T9 chain: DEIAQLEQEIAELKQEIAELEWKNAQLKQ

4H2667-bA = molecular target: T10, 4H2667-bA
T10 chain: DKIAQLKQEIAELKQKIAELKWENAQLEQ

4H2610-bA = molecular target: T11, 4H2610-bA
T11 chain: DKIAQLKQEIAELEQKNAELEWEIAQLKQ

4H2576-bA = molecular target: T12, 4H2576-bA
T12 chain: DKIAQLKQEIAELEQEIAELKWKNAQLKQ

4H3843-bA = molecular target: T13, 4H3843-bA
T13 chain: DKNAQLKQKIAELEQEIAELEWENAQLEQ

4H967-bA = molecular target: T14, 4H967-bA
T14 chain: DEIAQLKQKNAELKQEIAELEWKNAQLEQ

4H607-bA = molecular target: T15, 4H607-bA
T15 chain: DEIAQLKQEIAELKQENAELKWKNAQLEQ

4H2618-bA = molecular target: T16, 4H2618-bA
T16 chain: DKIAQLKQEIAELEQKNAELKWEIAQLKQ

4H3782-bA = molecular target: T17, 4H3782-bA
T17 chain: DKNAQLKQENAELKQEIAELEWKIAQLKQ

4H953-bA = molecular target: T18, 4H953-bA
T18 chain: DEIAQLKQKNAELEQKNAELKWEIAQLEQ

4H797-bA = molecular target: T19, 4H797-bA
T19 chain: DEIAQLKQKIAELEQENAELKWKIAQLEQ

4H687-bA = molecular target: T20, 4H687-bA
T20 chain: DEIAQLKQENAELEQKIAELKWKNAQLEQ

4H883-bA = molecular target: T21, 4H883-bA
T21 chain: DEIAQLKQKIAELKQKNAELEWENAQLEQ

4H4001-bA = molecular target: T22, 4H4001-bA
T22 chain: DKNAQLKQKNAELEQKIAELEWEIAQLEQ

4H3112-bA = molecular target: T23, 4H3112-bA
T23 chain: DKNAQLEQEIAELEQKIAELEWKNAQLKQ

4H2717-bA = molecular target: T24, 4H2717-bA
T24 chain: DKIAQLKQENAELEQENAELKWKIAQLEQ

4H3606-bA = molecular target: T25, 4H3606-bA
T25 chain: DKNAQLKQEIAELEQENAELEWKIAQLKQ

4H717-bA = molecular target: T26, 4H717-bA
T26 chain: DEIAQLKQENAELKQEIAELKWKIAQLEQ

4H3189-bA = molecular target: T27, 4H3189-bA
T27 chain: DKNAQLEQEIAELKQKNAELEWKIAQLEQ

4H3855-bA = molecular target: T28, 4H3855-bA
T28 chain: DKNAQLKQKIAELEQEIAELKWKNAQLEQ

4H3057-bA = molecular target: T29, 4H3057-bA
T29 chain: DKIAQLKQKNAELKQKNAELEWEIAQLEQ

4H338-bA = molecular target: T30, 4H338-bA
T30 chain: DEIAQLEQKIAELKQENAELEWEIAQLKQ

4H3427-bA = molecular target: T31, 4H3427-bA
T31 chain: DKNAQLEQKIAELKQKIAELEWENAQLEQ

4H2760-bN = molecular target: T32, 4H2760-bN
T32 chain: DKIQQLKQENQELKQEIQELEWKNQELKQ

4H908-bA = molecular target: T33, 4H908-bA
T33 chain: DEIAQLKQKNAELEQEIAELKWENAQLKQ

4H454-bA = molecular target: T34, 4H454-bA
T34 chain: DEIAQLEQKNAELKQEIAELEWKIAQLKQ

4H918-bA = molecular target: T35, 4H918-bA
T35 chain: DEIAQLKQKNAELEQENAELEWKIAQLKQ

4H568-bA = molecular target: T36, 4H568-bA
T36 chain: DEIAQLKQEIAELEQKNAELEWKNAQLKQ

P6A-bA = molecular target: T37, P6A-bA
T37 chain: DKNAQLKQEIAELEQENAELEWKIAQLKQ

P9A-bA = molecular target: T38, P9A-bA
T38 chain: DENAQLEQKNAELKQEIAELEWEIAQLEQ

P8A-bA = molecular target: T39, P8A-bA
T39 chain: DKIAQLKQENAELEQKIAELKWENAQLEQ

P7A-bA = molecular target: T40, P7A-bA
T40 chain: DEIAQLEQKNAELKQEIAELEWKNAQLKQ

P4A-bA = molecular target: T41, P4A-bA
T41 chain: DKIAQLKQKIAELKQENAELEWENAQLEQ

P5A-bA = molecular target: T42, P5A-bA
T42 chain: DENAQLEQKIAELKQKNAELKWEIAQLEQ

interaction score (4H3354-bA): -0.69
interaction score (4H3185-bA): -1.6
interaction score (4H370-bA): 1.32
interaction score (4H462-bA): 0.799
interaction score (4H754-bA): -0.459
interaction score (4H2697-bA): 0.599
interaction score (4H331-bA): 1.26
interaction score (4H2729-bA): 1.22
interaction score (4H72-bA): 1.49
interaction score (4H2667-bA): 0.89
interaction score (4H2610-bA): -0.116
interaction score (4H2576-bA): 1.66
interaction score (4H3843-bA): 2.1
interaction score (4H967-bA): 1.25
interaction score (4H607-bA): -0.213
interaction score (4H2618-bA): -0.0165
interaction score (4H3782-bA): 0.345
interaction score (4H953-bA): 0.283
interaction score (4H797-bA): -0.381
interaction score (4H687-bA): -0.678
interaction score (4H883-bA): 0.662
interaction score (4H4001-bA): 1.77
interaction score (4H3112-bA): 0.265
interaction score (4H2717-bA): -1.39
interaction score (4H3606-bA): -0.614
interaction score (4H717-bA): -1.01
interaction score (4H3189-bA): -0.652
interaction score (4H3855-bA): 0.525
interaction score (4H3057-bA): 1.74
interaction score (4H338-bA): 0.28
interaction score (4H3427-bA): 1.64
interaction score (4H2760-bN): 0.547
interaction score (4H908-bA): 0.163
interaction score (4H454-bA): 0.611
interaction score (4H918-bA): -0.646
interaction score (4H568-bA): -0.232
Binder: DKIAQLKQEIAELEQEIAELKWKNAQLKQ [4H2576-bA]

interaction score (P6A-bA): -2.07
interaction score (P9A-bA): -0.899
interaction score (P8A-bA): -0.955
interaction score (P7A-bA): -1.25
interaction score (P4A-bA): -0.883
interaction score (P5A-bA): -1.23
Binder: DKIAQLKQKIAELKQENAELEWENAQLEQ [P4A-bA]
